Test results published in US20220162261A1 (published 2022).
Bridge positions count the residues as written; N and C are the ends. Square brackets hold non-standard residues; d marks the D form. Ends that are not written are not given here. * marks the point of attachment. Phe(3,4-Cl2) = N[C@@H](Cc1ccc(Cl)c(Cl)c1)C(=O)O; Phe(4-CF3) = N[C@@H](Cc1ccc(C(F)(F)F)cc1)C(=O)O; Phe(4-tBu) = CC(C)(C)c1ccc(C[C@H](N)C(=O)O)cc1; Phe(2,4-Cl2) = N[C@@H](Cc1ccc(Cl)cc1Cl)C(=O)O; Oleoyl = CCCCCCCC/C=C\CCCCCCCC(=O)*; NMeR = CN[C@@H](CCCNC(=N)N)C(=O)O; Palmitoyl = CCCCCCCCCCCCCCCC(=O)*; hPhe = N[C@@H](CCc1ccccc1)C(=O)O; Myristoyl = CCCCCCCCCCCCCC(=O)*; Tic = O=C(O)[C@@H]1Cc2ccccc2CN1; β3hE = N[C@@H](CCC(=O)O)CC(=O)O; Pen = CC(C)(S)[C@H](N)C(=O)O; Isovaleryl = CC(C)CC(=O)*; Hexanoyl = CCCCCC(=O)*

B1: SEQ ID NO: 131 (peptide)
peptide: Ac-[Pen][NMeR]SDTL[Pen][Phe(4-tBu)]E[dK]-NH2
modifications: disulfide 1-7; not fully specified (residue 10); printed as (Ac Pen N-Me-R S D T L Pen F(4tBu) E k NH2)2 DIG, disulfide Pen-Pen; also: homodimer, two subunits joined by DIG linker
B2: SEQ ID NO: 16 (peptide)
peptide: Ac-[Pen][NMeR]SDTL[Pen][Phe(2,4-Cl2)]E[dK]-NH2
modifications: disulfide 1-7
SMILES: CC(=O)N[C@@H]1C(=O)N(C)[C@@H](CCCNC(=N)N)C(=O)N[C@@H](CO)C(=O)N[C@@H](CC(=O)O)C(=O)N[C@@H]([C@@H](C)O)C(=O)N[C@@H](CC(C)C)C(=O)N[C@H](C(=O)N[C@@H](Cc2ccc(Cl)cc2Cl)C(=O)N[C@@H](CCC(=O)O)C(=O)N[C@H](CCCCN)C(N)=O)C(C)(C)SSC1(C)C
B3: SEQ ID NO: 19 (peptide)
peptide: Ac-[Pen][NMeR]SDTL[Pen][hPhe]E[dK]-NH2
modifications: disulfide 1-7
SMILES: CC(=O)N[C@@H]1C(=O)N(C)[C@@H](CCCNC(=N)N)C(=O)N[C@@H](CO)C(=O)N[C@@H](CC(=O)O)C(=O)N[C@@H]([C@@H](C)O)C(=O)N[C@@H](CC(C)C)C(=O)N[C@H](C(=O)N[C@@H](CCc2ccccc2)C(=O)N[C@@H](CCC(=O)O)C(=O)N[C@H](CCCCN)C(N)=O)C(C)(C)SSC1(C)C
B4: SEQ ID NO: 14 (peptide)
peptide: Ac-[Pen][NMeR]SDTL[Pen][hPhe][dE][dK]-NH2
modifications: disulfide 1-7
SMILES: CC(=O)N[C@@H]1C(=O)N(C)[C@@H](CCCNC(=N)N)C(=O)N[C@@H](CO)C(=O)N[C@@H](CC(=O)O)C(=O)N[C@@H]([C@@H](C)O)C(=O)N[C@@H](CC(C)C)C(=O)N[C@H](C(=O)N[C@@H](CCc2ccccc2)C(=O)N[C@H](CCC(=O)O)C(=O)N[C@H](CCCCN)C(N)=O)C(C)(C)SSC1(C)C
B5: SEQ ID NO: 48 (peptide)
peptide: Ac-[Pen][NMeR][dD]DTL[Pen]WE[dK]-NH2
modifications: disulfide 1-7
SMILES: CC(=O)N[C@@H]1C(=O)N(C)[C@@H](CCCNC(=N)N)C(=O)N[C@H](CC(=O)O)C(=O)N[C@@H](CC(=O)O)C(=O)N[C@@H]([C@@H](C)O)C(=O)N[C@@H](CC(C)C)C(=O)N[C@H](C(=O)N[C@@H](Cc2c[nH]c3ccccc23)C(=O)N[C@@H](CCC(=O)O)C(=O)N[C@H](CCCCN)C(N)=O)C(C)(C)SSC1(C)C
B6: SEQ ID NO: 46 (peptide)
peptide: Ac-[Pen][NMeR]SDDL[Pen]WE[dK]-NH2
modifications: disulfide 1-7
SMILES: CC(=O)N[C@@H]1C(=O)N(C)[C@@H](CCCNC(=N)N)C(=O)N[C@@H](CO)C(=O)N[C@@H](CC(=O)O)C(=O)N[C@@H](CC(=O)O)C(=O)N[C@@H](CC(C)C)C(=O)N[C@H](C(=O)N[C@@H](Cc2c[nH]c3ccccc23)C(=O)N[C@@H](CCC(=O)O)C(=O)N[C@H](CCCCN)C(N)=O)C(C)(C)SSC1(C)C
B7: SEQ ID NO: 89 (peptide)
peptide: Ac-[Pen][NMeR]SDTLC[Tic][dE][dK]-NH2
modifications: disulfide 1-7
SMILES: CC(=O)N[C@@H]1C(=O)N(C)[C@@H](CCCNC(=N)N)C(=O)N[C@@H](CO)C(=O)N[C@@H](CC(=O)O)C(=O)N[C@@H]([C@@H](C)O)C(=O)N[C@@H](CC(C)C)C(=O)N[C@H](C(=O)N2Cc3ccccc3C[C@H]2C(=O)N[C@H](CCC(=O)O)C(=O)N[C@H](CCCCN)C(N)=O)CSSC1(C)C
B8: SEQ ID NO: 182 (peptide)
peptide: Ac-[Pen][NMeR]SDTL[Pen][Phe(4-tBu)][β3hE][dK]-NH2
modifications: disulfide 1-7; not fully specified (residue 10); printed as (Ac Pen N-Me-R S D T L Pen F(4-tBu) b-H-E k NH2)2 IDA Alexa-488, disulfide Pen-Pen; also: homodimer: two subunits joined by IDA linker, Alexa-488 label on the linker
B9: SEQ ID NO: 17 (peptide)
peptide: Ac-[Pen][NMeR]SDTL[Pen][Phe(3,4-Cl2)]E[dK]-NH2
modifications: disulfide 1-7
SMILES: CC(=O)N[C@@H]1C(=O)N(C)[C@@H](CCCNC(=N)N)C(=O)N[C@@H](CO)C(=O)N[C@@H](CC(=O)O)C(=O)N[C@@H]([C@@H](C)O)C(=O)N[C@@H](CC(C)C)C(=O)N[C@H](C(=O)N[C@@H](Cc2ccc(Cl)c(Cl)c2)C(=O)N[C@@H](CCC(=O)O)C(=O)N[C@H](CCCCN)C(N)=O)C(C)(C)SSC1(C)C
B10: SEQ ID NO: 21 (peptide)
peptide: C[NMeR]SDTL[Pen]W-NH2
modifications: disulfide 1-7; not fully specified (N-terminus); printed as PEG25 NH2 C N-Me-R S D T L Pen W NH2, disulfide C-Pen; also: N-terminal PEG25 linker, number of subunits not shown
notes: N-terminal linker printed without dimer brackets
B11: SEQ ID NO: 45 (peptide)
peptide: Ac-[Pen][NMeR]SDTL[Pen][hPhe]E[dK]-NH2
modifications: disulfide 1-7; not fully specified (residue 10); printed as (Ac Pen N-Me-R S D T L Pen HPhe E k NH2)2 DIG, disulfide Pen-Pen; also: dimer, two subunits joined by DIG linker
B12: SEQ ID NO: 36 (peptide)
peptide: Ac-C[NMeR]SDTL[Pen]W[dK]-NH2
modifications: disulfide 1-7; not fully specified (residue 9); printed as (Ac C N-Me-R S D T L Pen W k NH2)2 PEG13, disulfide C-Pen; also: dimer, two subunits joined by PEG13 linker
B13: SEQ ID NO: 20 (peptide)
peptide: C[NMeR]SDTL[Pen]W-NH2
modifications: disulfide 1-7; not fully specified (N-terminus); printed as PEG13 NH2 C N-Me-R S D T L Pen W NH2, disulfide C-Pen; also: N-terminal PEG13 linker, number of subunits not shown
notes: as for B10
B14: SEQ ID NO: 192 (peptide)
peptide: Ac-[Pen][NMeR]SQIQ[Pen][Phe(4-tBu)][β3hE][dK]-NH2
modifications: disulfide 1-7; also: homodimer via IDA linker on D-Lys10 side chains, Alexa-647 label
B15: SEQ ID NO: 3 (peptide)
peptide: Ac-[Pen][NMeR]SDTL[Pen][Phe(4-CF3)][dE][dK]-NH2
modifications: disulfide 1-7; not fully specified (residue 10); printed as (Ac Pen N-Me-R S D T L Pen F(4-CF3) e k NH2)2 DIG, disulfide Pen-Pen; also: dimer, two subunits joined by DIG linker
B16: SEQ ID NO: 37 (peptide)
peptide: Ac-C[NMeR]SDTL[Pen]W[dK]-NH2
modifications: disulfide 1-7; not fully specified (residue 9); printed as (Ac C N-Me-R S D T L Pen W k NH2)2 PEG25, disulfide C-Pen; also: dimer, two subunits joined by PEG25 linker

The binders below were run against T1, rh integrin α4β7 (R&D Systems #5397-A30) (human, UniProt P13612 34-970; P26010 20-723) (assay: competition ELISA vs MAdCAM-1).
T1 construct: bought; coated on a nickel coated plate; also called immobilized α4β7; immobilized α4β7 integrin protein

IC50 [nM] | Binder
≤ 10 | B1
> 10 | B2
> 10 | B3
> 25 | B4
> 1000 | B5
> 1000 | B6
> 25 | B7
≤ 10 | B8
> 10 | B9

The binders below were run against T2, human α4β7 integrin on cells (human, UniProt P13612 34-1032; P26010 20-798) (assay: RPMI8866 cell adhesion to MAdCAM-1).
T2 construct: whole, on cells; also called α4β7 cell (Hu); RPMI8866 cells

IC50 [nM] | Binder
> 1000 | Palmitoyl-[Pen][NMeR]SDTL[Pen][Phe(4-tBu)][β3hE][dK]-NH2 (disulfide 1-7) [SEQ ID NO: 178]
> 50 | B10
> 25 | B11
> 50 | Isovaleryl-[Pen][NMeR]SDTL[Pen][Phe(4-tBu)][β3hE][dK]-NH2 (disulfide 1-7) [SEQ ID NO: 177]
> 1000 | Myristoyl-[Pen][NMeR]SDTL[Pen][Phe(4-tBu)][β3hE][dK]-NH2 (disulfide 1-7) [SEQ ID NO: 181]
> 50 | B12
> 50 | B13
> 10000 | Ac-[Pen][NMeR]SQIQ[Pen][Phe(4-tBu)][β3hE][dK]-NH2 (disulfide 1-7; also: homodimer via DIG linker on D-Lys10 side chains) [SEQ ID NO: 189]
> 10000 | B14
> 25 | B15
> 500 | Ac-[Pen][NMeR]SDTL[Pen][Phe(4-tBu)][β3hE][dK](Myristoyl) (disulfide 1-7) [SEQ ID NO: 175]
> 100000 | Ac-[Pen][NMeR]SQIQ[Pen][Phe(4-tBu)][β3hE][dK]-NH2 (disulfide 1-7; also: homodimer via IDA linker on D-Lys10 side chains) [SEQ ID NO: 190]
> 100 | B16
> 1000 | Oleoyl-[Pen][NMeR]SDTL[Pen][Phe(4-tBu)][β3hE][dK]-NH2 (disulfide 1-7) [SEQ ID NO: 180]
> 50 | Hexanoyl-[Pen][NMeR]SDTL[Pen][Phe(4-tBu)][β3hE][dK]-NH2 (disulfide 1-7) [SEQ ID NO: 176]
